Assay results reported in PMC5603883, “Challenges to Design and Develop of DNA Aptamers for Protein Targets. II. Development of the Aptameric Affinity Ligands Specific to Human Plasma Coagulation Factor VIII Using SEC-SELEX”.

Molecular target: coagulation factor VIII (plasma-derived, Haemoctin 500) (Homo sapiens, UniProt P00451 20-2351)
Test: nitrocellulose filter binding, fluorescence of filtrate; 5 mM CaCl2, 5 mM MgCl2; Tris 40 mM, NaCl 117 mM, CaCl2 5 mM, MgCl2 5 mM, pH 7.4; selection at 4 °C, Kd assay temperature not stated; FVIII 20 ng (700 pM), DNA 0.5-700 nM
Conditions: protein: commercial; label: fluorescein via labelled reverse primer (S3) stated for the labelling PCR; the labelled strand is not explicitly specified; predicted three-branch stem-loop

Chain of coagulation factor VIII (plasma-derived, Haemoctin 500) (P00451 20-2351): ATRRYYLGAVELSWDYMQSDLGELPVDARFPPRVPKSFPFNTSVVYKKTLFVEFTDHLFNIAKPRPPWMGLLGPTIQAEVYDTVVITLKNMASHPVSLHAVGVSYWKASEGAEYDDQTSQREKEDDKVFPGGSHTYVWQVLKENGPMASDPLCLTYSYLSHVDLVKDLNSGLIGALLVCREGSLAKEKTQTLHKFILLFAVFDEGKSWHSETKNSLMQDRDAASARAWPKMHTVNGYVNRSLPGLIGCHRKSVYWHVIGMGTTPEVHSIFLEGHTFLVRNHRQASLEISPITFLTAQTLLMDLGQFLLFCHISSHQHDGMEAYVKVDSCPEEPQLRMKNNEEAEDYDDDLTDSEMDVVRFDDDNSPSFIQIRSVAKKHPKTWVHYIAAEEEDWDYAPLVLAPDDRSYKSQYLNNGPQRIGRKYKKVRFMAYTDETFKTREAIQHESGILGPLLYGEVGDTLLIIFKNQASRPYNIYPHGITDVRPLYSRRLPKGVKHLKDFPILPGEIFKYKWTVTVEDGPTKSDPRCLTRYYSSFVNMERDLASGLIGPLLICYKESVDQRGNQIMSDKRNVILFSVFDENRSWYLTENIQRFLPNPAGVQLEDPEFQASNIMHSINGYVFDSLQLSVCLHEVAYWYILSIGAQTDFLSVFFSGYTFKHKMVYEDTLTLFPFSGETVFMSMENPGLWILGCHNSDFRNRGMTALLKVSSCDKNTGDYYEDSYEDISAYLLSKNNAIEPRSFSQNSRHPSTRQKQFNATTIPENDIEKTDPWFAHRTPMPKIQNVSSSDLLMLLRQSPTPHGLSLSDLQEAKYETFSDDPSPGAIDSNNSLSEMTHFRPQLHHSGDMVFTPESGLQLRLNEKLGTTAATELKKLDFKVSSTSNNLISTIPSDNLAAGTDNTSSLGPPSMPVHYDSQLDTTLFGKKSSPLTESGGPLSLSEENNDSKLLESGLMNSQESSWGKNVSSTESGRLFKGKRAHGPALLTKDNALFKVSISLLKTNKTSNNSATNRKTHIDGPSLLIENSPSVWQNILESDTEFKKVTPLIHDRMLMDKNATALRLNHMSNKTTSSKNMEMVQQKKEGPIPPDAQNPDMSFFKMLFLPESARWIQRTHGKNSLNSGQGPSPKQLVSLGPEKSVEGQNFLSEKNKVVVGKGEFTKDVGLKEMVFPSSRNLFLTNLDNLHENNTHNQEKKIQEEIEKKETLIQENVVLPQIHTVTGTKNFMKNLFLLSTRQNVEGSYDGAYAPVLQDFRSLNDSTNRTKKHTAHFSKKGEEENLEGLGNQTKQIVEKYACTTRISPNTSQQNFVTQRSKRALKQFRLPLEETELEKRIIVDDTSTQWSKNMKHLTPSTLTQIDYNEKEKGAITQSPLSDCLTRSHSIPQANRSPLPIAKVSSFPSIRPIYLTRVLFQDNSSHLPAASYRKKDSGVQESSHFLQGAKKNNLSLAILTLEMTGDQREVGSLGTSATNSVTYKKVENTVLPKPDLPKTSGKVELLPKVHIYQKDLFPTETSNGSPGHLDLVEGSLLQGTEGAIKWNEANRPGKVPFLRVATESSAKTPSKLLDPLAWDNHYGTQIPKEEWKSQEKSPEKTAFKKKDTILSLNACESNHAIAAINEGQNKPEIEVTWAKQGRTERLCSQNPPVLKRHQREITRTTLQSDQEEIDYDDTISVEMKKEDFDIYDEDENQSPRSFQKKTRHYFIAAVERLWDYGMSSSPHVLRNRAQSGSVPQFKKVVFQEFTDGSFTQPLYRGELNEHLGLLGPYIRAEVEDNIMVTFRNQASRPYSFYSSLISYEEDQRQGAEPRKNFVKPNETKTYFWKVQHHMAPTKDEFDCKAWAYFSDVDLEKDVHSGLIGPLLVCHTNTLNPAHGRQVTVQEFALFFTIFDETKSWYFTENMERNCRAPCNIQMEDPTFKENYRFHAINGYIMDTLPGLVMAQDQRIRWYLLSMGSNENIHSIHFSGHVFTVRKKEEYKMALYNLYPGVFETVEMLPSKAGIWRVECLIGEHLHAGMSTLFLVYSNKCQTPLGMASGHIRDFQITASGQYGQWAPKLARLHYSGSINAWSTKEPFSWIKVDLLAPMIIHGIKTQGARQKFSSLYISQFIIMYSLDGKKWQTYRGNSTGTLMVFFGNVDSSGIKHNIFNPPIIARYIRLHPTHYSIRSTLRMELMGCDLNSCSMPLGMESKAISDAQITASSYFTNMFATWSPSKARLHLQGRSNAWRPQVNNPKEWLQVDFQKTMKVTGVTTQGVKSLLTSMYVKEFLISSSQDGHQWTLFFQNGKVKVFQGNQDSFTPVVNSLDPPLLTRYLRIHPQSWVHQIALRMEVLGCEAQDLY

B1: FVIII aptamer (full-length clone, 77 nt) (ssDNA)
DNA: GGTGTTACTCTTCATGTGGATCCGTACGTCCTGGGCTTCTTGATCGTCAGCCGAAGAATTCAGCACCCTAGCCTCGT
**Q.** B1 was tested. Which Kd did it give?
**A.** 925 ± 11.6 nM
